# Tested on: MS2 coat protein
# Experiment: apparent KD of MS2 coat protein; designed switch direction (-1 OFF switch, 1 ON switch): 1; higher = weaker reporter binding
# Method in brief: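 Designed RNA switches were transcribed on Illumina chips by stalled E. coli RNA polymerase and titrated with SNAP-549-labelled MS2 coat protein from 0.7 or 1.5 nM, doubling to 3 µM. Step length ran from 0.8–1.5 h at the lowest concentration to 10–20 min at the highest. The apparent KD is the median over clusters for each design, from curve-fitted normalised cluster fluorescence.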
# [1] = Eterna round: R95, input ligand: FMN 200 uM
# [2] = Eterna round: R95, input ligand: microRNA oligo, concentration not stated
# [3] = Eterna round: R95, input ligand: none
# [4] = input ligand: microRNA oligo, concentration not stated
Sequence,apparent KD of MS2 coat protein [1] [nM],apparent KD of MS2 coat protein [2] [nM],apparent KD of MS2 coat protein [3] [nM],apparent KD of MS2 coat protein [4] [nM],apparent KD of MS2 coat protein (input ligand: FMN 200 uM) [nM],apparent KD of MS2 coat protein (input ligand: none) [nM]
AUAAAACAUGAGGAUCACCCAUGUCAACAAAGUCGAGGAUAUGGUCAAAUAAAAUAAGAACCAGAAGGCGAAUAAU [salish99_ss1_r3_029] (puzzle: Same State 1),17.8,26.3,25.3,,,
AUAAAACAUGAGGAUCACCCAUGUCAAUAAAGUCGAGGAUAUGGGCAAAUAAAAUAAGAACCAGAAGGCGAAUAAU [salish99_ss1_r3_042] (puzzle: Same State 1),33.2,217,206,,,
AUAAGGCAAGCUUUUUUCUCGUAGUGUAAACAUGAGGAUCACCCAUGUGCCCACCCUGGAUCUUUGAAUCGCAGAAC [Dianancete] (puzzle: Sensor for hsa-mir-208a),26.7,16.6,27.3,,,
AUAAGGCAAGCUUUUUUCUCGUAGUGUAAACAUGAGGAUCACCCAUGUGCCCACCCUGGAUCUUUGGAUCGCAGAAC [Sobiisarre] (puzzle: Sensor for hsa-mir-208a),20.3,15.2,22.7,,,
AUAAGUUCGAUGCUCGUCUCUCCGUACAAACAUGAGGAUCACCCAUGUGGCCGGGAAGUAGCCCGACCAGUAUGGCC [Tearbeorve] (puzzle: Sensor for hsa-mir-208a),38.6,27.1,45.2,,,
AUAAGUUCGAUGCUCGUCUCUCCGUACAAACAUGAGGAUCACCCAUGUGGUCGGGAAGUAGCCCGGCCAGUAUGACC [Arbesoce] (puzzle: Sensor for hsa-mir-208a),31.2,22,29,,,
AUAAGUUUGAUGCUCGUCUCUCCGUACAGACAUGAGGAUCACCCAUGUAGUCAGGAAGUAGCCUGGCCAGUAUGGCC [Berave] (puzzle: Sensor for hsa-mir-208a),27.5,16.6,31.1,,,
"AUAAUACAUGAGGAUCACCCAUGUAAUUUAACUUGUAAGAUCAAGGAUAUCAGCUCGAUUAGAGCUGAGAAGGUGAUCACAUGU [SSNG3/20-A2] (Eterna round: R96, puzzle: Same State NG 3)",,,,69.1,,
"AUACAUAUCAGAGGAUAUCACGUCGAUUAGACGUGAGAAGGCUGAUCACACAUGAAUAUUAAUACAUGAGGAUCACCCAUGUAU [SSNG1/14-A2] (Eterna round: R96, puzzle: Same State NG 1)",,,,14.8,20.6,18.8
"AUAGUUUCCGAAGGAUAUGAUGAGGAUCACCCAUCAGAAGGUUGGCUAUUGGGCUGACAUGAGGAUCACCCAUGUUCUGGUGUU (Eterna round: R96, puzzle: Same State NG 1)",,,,33.2,39.1,57
"AUAUGAGAAGCAGGAUAUGUGGAGAAGAAACAAACAGAAGGGUUUAUGGGACAACAUGAGGAUCACCCAUGUUCUCUGUGAUGA [AK SSNG1-V2-2] (Eterna round: R96, puzzle: Same State NG 1)",,,,44.3,52.5,59.2
"AUAUGAGAAGCAGGAUAUGUGGAGAAGAAAGAAACAGAAGGGCUUAUGGGACAACAUGAGGAUCACCCAUGUUCUCUGUGAUGA [AK SSNG1-V2-2.1] (Eterna round: R96, puzzle: Same State NG 1)",,,,144,42.8,188
"AUGAAGAAUUAAGGAUAUUGAAUACAUAUGUUUAACAUGAGGAUCACCCAUGUGGGUUGCGGUAUCGAGAAGGUAAAAUAAUAG [Mat - same State NG 2 - JL mod - D91] (Eterna round: R96, puzzle: Same State NG 2)",,,,79.4,162,136
AUGGUGCAGGUACAGGAUAUGUUGCUCGUAACAUGAGGAUCACCCAUGUACCUAUGAGAAUAAAUGCAGAAGGGUGCACACCACG [Mat - Same State 2 - Mod of UCT - D92] (puzzle: Same State 2),57,3220,156,,,
AUGGUGCAGGUACAGGAUAUGUUGCUCGUAACAUGAGGAUCACCCAUGUACCUAUGAGAUUAAAUGCAGAAGGGUGCACACCACU [Mat - Same State 2 - Mod of UCT - D89] (puzzle: Same State 2),77.1,613,158,,,

# From the supplement of paper PMC9170038
